Molecular target: T1, H2-Kb molecules in the microsomes of RAW309Cr.1 cells (murine)
T1 chain 1: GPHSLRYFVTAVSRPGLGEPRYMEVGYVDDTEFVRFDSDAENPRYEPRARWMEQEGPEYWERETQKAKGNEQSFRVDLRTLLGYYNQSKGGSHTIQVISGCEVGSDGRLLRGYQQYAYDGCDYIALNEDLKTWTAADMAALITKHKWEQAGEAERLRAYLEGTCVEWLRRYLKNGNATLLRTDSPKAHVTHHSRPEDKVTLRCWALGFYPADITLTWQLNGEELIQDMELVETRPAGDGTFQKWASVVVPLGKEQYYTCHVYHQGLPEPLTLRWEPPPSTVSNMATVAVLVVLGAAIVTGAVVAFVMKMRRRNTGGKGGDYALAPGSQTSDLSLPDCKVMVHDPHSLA
T1 chain 2: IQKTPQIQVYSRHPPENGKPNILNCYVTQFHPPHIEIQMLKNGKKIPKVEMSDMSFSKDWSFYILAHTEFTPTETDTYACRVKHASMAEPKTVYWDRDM
Assay: competition against 125I-labelled modified OVA peptide (competitor at the concentration of the report peptide), photo-crosslinking to Kb in microsomes
Conditions: remark: other sources report otherwise

percent of the report peptide competed: 50%
Binder: SIINFEKL [native OVA peptide (residues 257-264, SIINFEKL)]

Reference: patent publication US20070184022A1
